The values that follow come from patent publication US20150037868.

For data set [1], the target named is T1, TktA variant with HRV protease cleavage motif inserted after amino acid 635.
T1 chain: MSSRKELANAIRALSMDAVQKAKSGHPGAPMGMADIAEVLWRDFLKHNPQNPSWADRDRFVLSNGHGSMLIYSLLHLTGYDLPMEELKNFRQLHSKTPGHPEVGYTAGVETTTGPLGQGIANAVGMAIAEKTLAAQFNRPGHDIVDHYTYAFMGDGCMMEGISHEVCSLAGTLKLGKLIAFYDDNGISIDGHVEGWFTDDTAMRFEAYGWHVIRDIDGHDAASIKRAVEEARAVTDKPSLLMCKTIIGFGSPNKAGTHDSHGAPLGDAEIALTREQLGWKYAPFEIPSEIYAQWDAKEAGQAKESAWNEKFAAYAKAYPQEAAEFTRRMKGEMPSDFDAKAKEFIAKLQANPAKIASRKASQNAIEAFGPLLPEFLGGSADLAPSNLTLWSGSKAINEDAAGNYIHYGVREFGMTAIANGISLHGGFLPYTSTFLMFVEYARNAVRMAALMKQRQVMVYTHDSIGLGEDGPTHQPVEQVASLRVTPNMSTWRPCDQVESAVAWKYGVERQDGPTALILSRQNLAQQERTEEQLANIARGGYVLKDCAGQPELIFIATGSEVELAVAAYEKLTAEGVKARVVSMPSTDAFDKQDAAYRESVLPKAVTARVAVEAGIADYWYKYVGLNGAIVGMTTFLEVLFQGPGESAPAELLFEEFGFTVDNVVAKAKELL

In data set [2] the target is T2, TktA variant with HRV protease cleavage motif inserted after amino acid 636.
T2 chain: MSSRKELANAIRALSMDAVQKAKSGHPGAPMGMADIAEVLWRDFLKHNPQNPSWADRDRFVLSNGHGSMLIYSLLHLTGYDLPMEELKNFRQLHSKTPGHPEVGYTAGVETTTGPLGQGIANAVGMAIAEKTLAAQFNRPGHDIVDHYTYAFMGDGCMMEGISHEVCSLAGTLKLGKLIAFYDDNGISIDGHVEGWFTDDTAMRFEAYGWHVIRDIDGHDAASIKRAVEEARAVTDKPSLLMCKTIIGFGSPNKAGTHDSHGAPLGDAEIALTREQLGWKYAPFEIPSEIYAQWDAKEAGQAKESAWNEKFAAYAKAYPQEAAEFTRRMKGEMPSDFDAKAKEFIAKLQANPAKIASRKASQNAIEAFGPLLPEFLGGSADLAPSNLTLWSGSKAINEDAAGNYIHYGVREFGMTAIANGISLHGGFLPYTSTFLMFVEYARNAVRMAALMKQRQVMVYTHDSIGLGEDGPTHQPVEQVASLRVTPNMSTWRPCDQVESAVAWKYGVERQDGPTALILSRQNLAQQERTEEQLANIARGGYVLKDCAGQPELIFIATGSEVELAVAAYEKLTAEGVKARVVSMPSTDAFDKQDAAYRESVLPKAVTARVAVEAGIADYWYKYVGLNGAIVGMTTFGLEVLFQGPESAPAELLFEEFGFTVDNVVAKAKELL

The target of data set [3] is T3, TktA variant with HRV protease cleavage motif inserted after amino acid 637.
T3 chain: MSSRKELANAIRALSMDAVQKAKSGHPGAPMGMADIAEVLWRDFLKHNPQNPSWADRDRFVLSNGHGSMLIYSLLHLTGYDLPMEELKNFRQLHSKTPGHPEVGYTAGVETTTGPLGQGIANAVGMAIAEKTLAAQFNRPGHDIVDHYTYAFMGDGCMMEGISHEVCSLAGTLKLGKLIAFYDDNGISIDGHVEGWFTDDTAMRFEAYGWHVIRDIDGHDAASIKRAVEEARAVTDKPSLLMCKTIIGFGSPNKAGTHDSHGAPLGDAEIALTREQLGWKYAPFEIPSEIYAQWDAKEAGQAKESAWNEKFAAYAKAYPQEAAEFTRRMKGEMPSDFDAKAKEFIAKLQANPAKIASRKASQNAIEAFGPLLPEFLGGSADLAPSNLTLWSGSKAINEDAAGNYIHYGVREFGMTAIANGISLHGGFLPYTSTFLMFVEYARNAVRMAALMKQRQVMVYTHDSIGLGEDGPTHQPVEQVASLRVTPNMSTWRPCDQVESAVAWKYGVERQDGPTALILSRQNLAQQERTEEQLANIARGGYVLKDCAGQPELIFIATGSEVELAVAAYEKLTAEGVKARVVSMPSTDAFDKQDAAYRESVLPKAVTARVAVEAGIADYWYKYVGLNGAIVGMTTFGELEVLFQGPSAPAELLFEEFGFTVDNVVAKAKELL

Data set [4] addresses T4, TktA variant with HRV protease cleavage motif inserted after amino acid 638.
T4 chain: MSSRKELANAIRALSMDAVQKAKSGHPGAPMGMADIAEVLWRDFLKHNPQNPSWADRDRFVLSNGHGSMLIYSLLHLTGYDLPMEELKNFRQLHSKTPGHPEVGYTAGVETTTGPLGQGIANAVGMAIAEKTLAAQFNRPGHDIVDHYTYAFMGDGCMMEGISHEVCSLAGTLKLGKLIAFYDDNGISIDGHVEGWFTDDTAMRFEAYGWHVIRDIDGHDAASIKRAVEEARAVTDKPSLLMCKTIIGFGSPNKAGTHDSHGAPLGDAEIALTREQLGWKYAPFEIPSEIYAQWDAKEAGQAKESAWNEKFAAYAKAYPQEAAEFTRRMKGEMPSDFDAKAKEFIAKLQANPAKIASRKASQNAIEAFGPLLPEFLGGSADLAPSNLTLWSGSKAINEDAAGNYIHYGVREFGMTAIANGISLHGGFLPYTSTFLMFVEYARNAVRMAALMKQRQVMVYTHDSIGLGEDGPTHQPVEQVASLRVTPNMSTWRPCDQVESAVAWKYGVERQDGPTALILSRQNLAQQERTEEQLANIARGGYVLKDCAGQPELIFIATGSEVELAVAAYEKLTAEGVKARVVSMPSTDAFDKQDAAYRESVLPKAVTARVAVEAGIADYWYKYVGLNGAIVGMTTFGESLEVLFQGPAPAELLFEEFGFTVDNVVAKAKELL

The target of data set [5] is T5, TktA variant with HRV protease cleavage motif inserted after amino acid 640.
T5 chain: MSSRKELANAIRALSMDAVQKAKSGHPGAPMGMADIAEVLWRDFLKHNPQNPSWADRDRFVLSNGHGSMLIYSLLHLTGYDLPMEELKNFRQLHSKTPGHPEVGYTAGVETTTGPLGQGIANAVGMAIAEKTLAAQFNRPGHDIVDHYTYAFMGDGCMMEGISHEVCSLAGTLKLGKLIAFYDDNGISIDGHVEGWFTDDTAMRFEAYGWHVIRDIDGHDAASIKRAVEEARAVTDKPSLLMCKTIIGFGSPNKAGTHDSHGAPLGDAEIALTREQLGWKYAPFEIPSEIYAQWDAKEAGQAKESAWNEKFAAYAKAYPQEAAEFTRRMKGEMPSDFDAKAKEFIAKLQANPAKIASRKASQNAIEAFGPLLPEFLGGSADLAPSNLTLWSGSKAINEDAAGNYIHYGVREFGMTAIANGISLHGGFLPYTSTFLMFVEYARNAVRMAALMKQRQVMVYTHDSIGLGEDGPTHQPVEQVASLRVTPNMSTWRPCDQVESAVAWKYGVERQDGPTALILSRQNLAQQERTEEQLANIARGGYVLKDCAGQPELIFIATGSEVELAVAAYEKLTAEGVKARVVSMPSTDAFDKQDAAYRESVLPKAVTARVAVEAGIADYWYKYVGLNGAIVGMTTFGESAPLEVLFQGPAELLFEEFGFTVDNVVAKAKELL

In data set [6] the target is T6, wild-type TktA protein (transketolase A of Escherichia coli).
T6 chain: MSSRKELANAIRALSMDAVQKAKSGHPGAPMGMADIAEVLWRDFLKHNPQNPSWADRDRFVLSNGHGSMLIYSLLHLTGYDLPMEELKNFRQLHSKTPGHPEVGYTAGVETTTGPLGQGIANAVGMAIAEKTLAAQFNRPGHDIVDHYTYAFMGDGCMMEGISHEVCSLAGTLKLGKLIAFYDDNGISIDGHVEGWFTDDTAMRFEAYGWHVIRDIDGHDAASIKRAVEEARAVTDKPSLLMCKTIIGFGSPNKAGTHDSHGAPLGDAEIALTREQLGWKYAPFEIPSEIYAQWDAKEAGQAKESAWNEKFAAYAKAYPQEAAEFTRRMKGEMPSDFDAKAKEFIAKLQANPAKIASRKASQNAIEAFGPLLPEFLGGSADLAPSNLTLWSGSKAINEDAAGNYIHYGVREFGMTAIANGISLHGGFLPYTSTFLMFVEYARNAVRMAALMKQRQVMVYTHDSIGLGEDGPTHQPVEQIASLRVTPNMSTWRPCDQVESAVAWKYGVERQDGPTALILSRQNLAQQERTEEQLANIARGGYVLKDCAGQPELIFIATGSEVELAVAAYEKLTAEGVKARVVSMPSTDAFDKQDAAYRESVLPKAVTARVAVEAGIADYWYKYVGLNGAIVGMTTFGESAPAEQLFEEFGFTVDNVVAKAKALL

Data set [7] addresses Pgi-HRV-I526 (Pgi with HRV 3C recognition sequence inserted after amino acid 526).

B1: tobacco etch virus (TEV) protease (protein)
chain: GESLFKGPRDYNPISSTICHLTNESDGHTTSLYGIGFGPFIITNKHLFRRNNGTLLVQSLHGVFKVKNTTTLQQHLIDGRDMIIIRMPKDFPPFPQKLKFREPQREERICLVTTNFQTKSMSSMVSDTSCTFPSSDGIFWKHWIQTKDGQCGSPLVSTRDGFIVGIHSASNFTNTNNYFTSVPKNFMELLTNQEAQQWVSGWRLNADSVLWGGHKVFMSKPEEPFQPVKEATQLMNELVYSQ
With B1, the growth rate in minimal glucose medium, TEV protease control +inducer (2% arabinose, pGLC219); -inducer value 0.52 in data set [1] was found to be 0.52. This protein also registered a growth rate in minimal glucose medium, TEV protease control +inducer (2% arabinose, pGLC219); -inducer value 0.39 in data set [2] of 0.42. In addition, in data set [3], the growth rate in minimal glucose medium, TEV protease control +inducer (2% arabinose, pGLC219); -inducer value 0.46 turned out to be 0.46. In addition, in data set [4], the growth rate in minimal glucose medium, TEV protease control +inducer (2% arabinose, pGLC219); -inducer value 0.18 is 0.18. The protein also showed a growth rate in minimal glucose medium, TEV protease control +inducer (2% arabinose, pGLC219); -inducer value 0.48 in data set [5] of 0.52. Besides, the growth rate in minimal glucose medium, TEV protease control +inducer (2% arabinose, pGLC219); -inducer value 0.55 in data set [6] was 0.53.

B2: HRV 3C protease with an N-terminal OmpA leader sequence (periplasmic) (protein)
chain: GPEEEFGMSLIKHNSCVITTENGKFTGLGVYDRFVVVPTHADPGKEIQVDGITTKVIDSYDLYNKNGIKLEITVLKLDRNEKFRDIRRYIPNNEDDYPNCNLALLANQPEPTIINVGDVVSYGNILLSGNQTARMLKYSYPTKSGYCGGVLYKIGQVLGIHVGGNGRDGFSAMLLRSYFTDVQ
In turn, B2 had a Pgi activity in clarified lysate after 2 h IPTG induction of periplasmically sequestered HRV 3C protease (pGLC089, OmpA leader); no-protease strain 1.3 (µmol/min/mg total protein) in data set [7] of 0.01.

B3: HRV 3C protease (codon-optimized for expression in E. coli), cytoplasmic (protein)
chain: MGPEEEFGMSLIKHNSCVITTENGKFTGLGVYDRFVVVPTHADPGKEIQVDGITTKVIDSYDLYNKNGIKLEITVLKLDRNEKFRDIRRYIPNNEDDYPNCNLALLANQPEPTIINVGDVVSYGNILLSGNQTARMLKYSYPTKSGYCGGVLYKIGQVLGIHVGGNGRDGFSAMLLRSYFTDVQ
Turning to B3, the Pgi activity in clarified lysate after 2 h IPTG induction of cytoplasmic HRV 3C protease (pGLC221, no OmpA leader); no-protease strain 1.3 (µmol/min/mg total protein) in data set [7] was -0.01. In data set [1], the growth rate in minimal glucose medium, HRV protease +inducer (2% arabinose, pGLC217); -inducer value 0.58 turned out to be 0.47. The protein also came in with a growth rate in minimal glucose medium, HRV protease +inducer (2% arabinose, pGLC217); -inducer value 0.43 in data set [2] of 0.17. The same protein had a growth rate in minimal glucose medium, HRV protease +inducer (2% arabinose, pGLC217); -inducer value 0.40 in data set [3] of 0.11. The protein also yielded a growth rate in minimal glucose medium, HRV protease +inducer (2% arabinose, pGLC217); -inducer value 0.13 in data set [4] of 0.08. The protein also displayed a growth rate in minimal glucose medium, HRV protease +inducer (2% arabinose, pGLC217); -inducer value 0.55 in data set [5] of 0.34. The protein further yielded a growth rate in minimal glucose medium, HRV protease +inducer (2% arabinose, pGLC217); -inducer value 0.60 in data set [6] of 0.57.
